According to patent US10064929B2, “Peptides and combination of peptides for use in immunotherapy against breast cancer and other cancers” (immatics biotechnologies GmbH, priority 2015, dated 2018):
Square brackets hold non-standard residues; d marks the D form. Ends that are not written are not given here. pT = C[C@@H](OP(=O)(O)O)[C@H](N)C(=O)O

What was measured:
HLA-A*02:01 = HLA-A*02:01 (Homo sapiens, UniProt P04439, D140Y/D185E/D98H/E176V/E277Q/G131W/G231S/I119V/I121R/I166T/I218V/L300P/L318F/N151K/N90K/P208A/P217A/Q86G/Q94H/R138H/R169H/T345S); experiment: MHC binding assay: UV-ligand exchange with β2m ELISA; details: binding to HLA-A*02:01
Excerpt: Candidate peptides for T cell based therapies according to the present invention were further tested for their MHC binding capacity (affinity). The individual peptide-MHC complexes were produced by UV-ligand exchange, where a UV-sensitive peptide is cleaved upon UV-irradiation, and exchanged with the peptide of interest as analyzed. Only peptide candidates that can effectively bind and stabilize the peptide-receptive MHC molecules prevent dissociation of the MHC complexes. To determine the yield of the exchange reaction, an ELISA was performed based on the detection of the light chain (β2m) of stabilized MHC complexes. The assay was performed as generally described in Rodenko et al. (Rodenko et al., 2006).
96 well MAXISorp plates (NUNC) were coated over night with 2 ug/ml streptavidin in PBS at room temperature, washed 4× and blocked for 1 h at 37° C. in 2% BSA containing blocking buffer. Refolded HLA-A*02:01/MLA-001 monomers served as standards, covering the range of 15-500 ng/ml. Peptide-MHC monomers of the UV-exchange reaction were diluted 100-fold in blocking buffer. Samples were incubated for 1 h at 37° C., washed four times, incubated with 2 ug/ml HRP conjugated anti-β2m for 1 h at 37° C., washed again and detected with TMB solution that is stopped with […]. Absorption was measured at 450 nm. Candidate peptides that show a high exchange yield (preferably higher than 50%, most preferred higher than 75%) are generally preferred for a generation and production of antibodies or fragments thereof, and/or T cell receptors or fragments thereof, as they show sufficient avidity to the MHC molecules and prevent dissociation of the MHC complexes.

CD8+ T cells = experiment: In vitro T-cell priming with aAPCs loaded with peptide/MHC complexes and anti-CD28 antibody, pMHC multimer readout; format: cell-based, human; details: for Wells positive [%] (in vitro immunogenicity): HLA-A*02 restricted peptides, positive wells among evaluable, healthy donors; for wells (in vitro immunogenicity, positive wells): HLA class I peptides, CD8+ T cells of healthy HLA-A*02 donors
Excerpt: In order to obtain information regarding the immunogenicity of the TUMAPs of the present invention, the inventors performed investigations using an in vitro T-cell priming assay based on repeated stimulations of CD8+ T cells with artificial antigen presenting cells (aAPCs) loaded with peptide/MHC complexes and anti-CD28 antibody.
In order to perform in vitro stimulations by artificial antigen presenting cells loaded with peptide-MHC complex (pMHC) and anti-CD28 antibody, the inventors first isolated CD8+ T cells from fresh HLA-A*02 leukapheresis products via positive selection using CD8 microbeads (Miltenyi Biotec, Bergisch-Gladbach, Germany) of healthy donors obtained from the University clinics Mannheim, Germany, after informed consent.
PBMCs and isolated CD8+ lymphocytes were incubated in T-cell medium (TCM) until use consisting of RPMI-Glutamax (Invitrogen, Karlsruhe, Germany) supplemented with 10% heat inactivated human AB serum (PAN-Biotech, Aidenbach, Germany), 100 U/ml Penicillin/100 μg/ml Streptomycin (Cambrex, Cologne, Germany), 1 mM sodium pyruvate (CC Pro, Oberdorla, Germany), 20 μg/ml Gentamycin (Cambrex). 2.5 ng/ml IL-7 (PromoCell, Heidelberg, Germany) and 10 U/ml IL-2 (Novartis Pharma, Nürnberg, Germany) were also added to the TCM at this step.
Generation of pMHC/anti-CD28 coated beads, T-cell stimulations and readout was performed in a highly defined in vitro system using four different pMHC molecules per stimulation condition and 8 different pMHC molecules per readout condition.
The purified co-stimulatory mouse IgG2a anti human CD28 Ab 9.3 (Jung et al., 1987) was chemically biotinylated using Sulfo-N-hydroxysuccinimidobiotin as recommended by the manufacturer (Perbio, Bonn, Germany). Beads used were 5.6 μm diameter streptavidin coated polystyrene particles (Bangs Laboratories, Illinois, USA).
800.000 beads/200 μl were coated in 96-well plates in the presence of 4×12.5 ng different biotin-pMHC, washed and 600 ng biotin anti-CD28 were added subsequently in a volume of 200 μl. Stimulations were initiated in 96-well plates by co-incubating 1×10^6 CD8+ T cells with 2×10^5 washed coated beads in 200 μl TCM supplemented with 5 ng/ml IL-12 (PromoCell) for 3 days at 37° C. Half of the medium was then exchanged by fresh TCM supplemented with 80 U/ml IL-2 and incubating was continued for 4 days at 37° C.
This stimulation cycle was performed for a total of three times. For the pMHC multimer readout using 8 different pMHC molecules per condition, a two-dimensional combinatorial coding approach was used as previously described (Andersen et al., 2012) with minor modifications encompassing coupling to 5 different fluorochromes. Finally, multimeric analyses were performed by staining the cells with Live/dead near IR dye (Invitrogen, Karlsruhe, Germany), CD8-FITC antibody clone SK1 (BD, Heidelberg, Germany) and fluorescent pMHC multimers. For analysis, a BD LSRII SORP cytometer equipped with appropriate lasers and filters was used. Peptide specific cells were calculated as percentage of total CD8+ cells. Evaluation of multimeric analysis was done using the FlowJo software (Tree Star, Oregon, USA). In vitro priming of specific multimer+ CD8+ lymphocytes was detected by comparing to negative control stimulations.

Row | Sequence | Peptide Exchange (MHC class I binding score, peptide exchange yield) (HLA-A*02:01) | Wells positive [%] (in vitro immunogenicity) (CD8+ T cells) | wells (in vitro immunogenicity, positive wells) (CD8+ T cells)
1 | ALAGSSPQV (listed as Homo sapiens) [SEQ ID NO: 2] | “+++” (≥50 = +++) | “++” (20%-49% = ++) | –
2 | ALEAUQLYL (ALEA[pT]QLYL; listed as Homo sapiens) [SEQ ID NO: 29, U = phospho-threonine] | “+++” (≥50 = +++) | – | –
3 | ALEEQLHQV (listed as Homo sapiens) [SEQ ID NO: 19] | “++” (≥20% = ++) | – | –
4 | ALNPVIYTV (listed as Homo sapiens) [SEQ ID NO: 5] | “++” (≥20% = ++) | – | –
5 | ALTALQNYL (listed as Homo sapiens) [SEQ ID NO: 6] | “+++” (≥50 = +++) | – | –
6 | FIIPTVATA (listed as Homo sapiens) [SEQ ID NO: 7] | “++++” (≥75% = ++++) | – | –
7 | FLDEEVKLI (listed as Homo sapiens) [SEQ ID NO: 43] | “+++” (≥50 = +++) | – | –
8 | FLSSEAANV (listed as Homo sapiens) [SEQ ID NO: 30] | “++” (≥20% = ++) | – | –
9 | FLVEHVLTL (listed as Homo sapiens) [SEQ ID NO: 42] | “++++” (≥75% = ++++) | – | –
10 | FMSKLVPAI (listed as Homo sapiens) [SEQ ID NO: 9] | “+++” (≥50 = +++) | – | –
11 | FSFPVSVGV (listed as Homo sapiens) [SEQ ID NO: 20] | “+++” (≥50 = +++) | – | –
12 | GLHSLPPEV (listed as Homo sapiens) [SEQ ID NO: 10] | “+++” (≥50 = +++) | – | –
13 | GLLGFQAEA (listed as Homo sapiens) [SEQ ID NO: 24] | “++++” (≥75% = ++++) | “++” (20%-49% = ++) | –
14 | GLLPTSVSPRV (listed as Homo sapiens) [SEQ ID NO: 11] | “++” (≥20% = ++) | – | –
15 | GLSYIYNTV (listed as Homo sapiens) [SEQ ID NO: 31] | “++” (≥20% = ++) | – | –
16 | GLVATLQSL (listed as Homo sapiens) [SEQ ID NO: 32] | “+++” (≥50 = +++) | – | –
17 | GLVQSLTSI (listed as Homo sapiens) [SEQ ID NO: 8] | “++++” (≥75% = ++++) | – | –
18 | ILFDVVVFL (listed as Homo sapiens) [SEQ ID NO: 25] | “++” (≥20% = ++) | – | –
19 | ILFPDIIARA (listed as Homo sapiens) [SEQ ID NO: 66] | – | – | ++ (20%-49% = ++)
20 | ILTELPPGV (listed as Homo sapiens) [SEQ ID NO: 33] | “++” (≥20% = ++) | – | –
21 | KAFPFYNTV (listed as Homo sapiens) [SEQ ID NO: 12] | “++” (≥20% = ++) | – | –

Row | Sequence | Peptide Exchange (MHC class I binding score, peptide exchange yield) (HLA-A*02:01) | Wells positive [%] (in vitro immunogenicity) (CD8+ T cells) | wells (in vitro immunogenicity, positive wells) (CD8+ T cells)
22 | KLLDMELEM (listed as Homo sapiens) [SEQ ID NO: 39] | “++++” (≥75% = ++++) | – | –
23 | KLYEGIPVL (listed as Homo sapiens) [SEQ ID NO: 13] | “++” (≥20% = ++) | – | –
24 | KMPEHISTV (listed as Homo sapiens) [SEQ ID NO: 1] | “+++” (≥50 = +++) | “+” (<20% = +) | –
25 | KQLELELEV (listed as Homo sapiens) [SEQ ID NO: 14] | “+++” (≥50 = +++) | – | –
26 | LLMUVAGLKL (LLM[pT]VAGLKL; listed as Homo sapiens) [SEQ ID NO: 38, U = phospho-threonine] | “++++” (≥75% = ++++) | – | –
27 | SLADAVEKV (listed as Homo sapiens) [SEQ ID NO: 23] | “+++” (≥50 = +++) | “+++” (50%-69% = +++) | –
28 | SLAEPRVSV (listed as Homo sapiens) [SEQ ID NO: 27] | “+++” (≥50 = +++) | – | –
29 | SLAWDVPAA (listed as Homo sapiens) [SEQ ID NO: 26] | “+++” (≥50 = +++) | – | –
30 | SLFPSLVVV (listed as Homo sapiens) [SEQ ID NO: 15] | “+++” (≥50 = +++) | – | –
31 | SLFSVPFFL (listed as Homo sapiens) [SEQ ID NO: 28] | “++++” (≥75% = ++++) | – | –
32 | SLLSEIQAL (listed as Homo sapiens) [SEQ ID NO: 35] | “++++” (≥75% = ++++) | – | –
33 | SLLTEPALV (listed as Homo sapiens) [SEQ ID NO: 21] | “+++” (≥50 = +++) | “++” (20%-49% = ++) | –
34 | SLNDQGYLL (listed as Homo sapiens) [SEQ ID NO: 41] | “+++” (≥50 = +++) | – | –
35 | SLVEGEAVHLA (listed as Homo sapiens) [SEQ ID NO: 4] | “++” (≥20% = ++) | – | –
36 | SLYKGLLSV (listed as Homo sapiens) [SEQ ID NO: 51] | – | – | ++ (20%-49% = ++)
37 | SMMGLLTNL (listed as Homo sapiens) [SEQ ID NO: 16] | “++++” (≥75% = ++++) | – | –
38 | TIASSIEKA (listed as Homo sapiens) [SEQ ID NO: 17] | “++” (≥20% = ++) | – | –
39 | TLLGLAVNV (listed as Homo sapiens) [SEQ ID NO: 36] | “++++” (≥75% = ++++) | – | –
40 | TLSSIKVEV (listed as Homo sapiens) [SEQ ID NO: 50] | – | – | + (<20% = +)
41 | YIDGLESRV (listed as Homo sapiens) [SEQ ID NO: 22] | “+++” (≥50 = +++) | “+” (<20% = +) | –
42 | YILLQSPQL (listed as Homo sapiens) [SEQ ID NO: 18] | “+++” (≥50 = +++) | – | –
